Assays:
[1] = molecular target: triplex of the HSV-1 capsid (herpes simplex virus 1, strain F); experiment: cryo-EM structure; icosahedral reconstruction of isolated PEVs (123 particles), projection matching from a starting map of in vitro-matured B-capsids that lack CCSC and pUL35; ~2 nm around the capsid shell, ~3.5 nm for the whole particle
[2] = molecular target: nuclear egress complex (NEC), heterodimer of pUL31 and pUL34 (herpes simplex virus 1, strain F) (UniProt P10215); experiment: cryo-electron tomography; tomograms of nuclear sacs from US3-null-infected Vero cells; 188 ring subtomograms, rotational symmetry by ROTASTAT, subtomogram averaging

| Substance | occupancy [1] [%] | stoichiometry N [2] |
| --- | --- | --- |
| heterodimeric pUL17/pUL25 complex, C-capsid-specific complex (CCSC) (from UniProt P10201 1-703; P10209 1-580) | 100 |  |
| nuclear egress complex (NEC), heterodimer of pUL31 and pUL34 (from UniProt P10215 1-306; P10218 1-275) |  | 7 |

Reference: PMC5472190
